Experimental data reported in US20090291088A1 (Biogen, published 2009).

Assays:
[1] = target: T1, human IGF-1R(1-902)-His10 (human, UniProt P08069 31-932); assay: SPR, Fab over IGF-1R-10His captured by anti-His
T1 construct: Cy5-labelled in tr-FRET; also called hIGF-1R-His10; IGF-1R-His
Protocol: All surface plasmon resonance (SPR) experiments were performed on a Biacore 3000 set to 25° C. using HBS-EP (Biacore, Cat. No. BR-1001-88) as the running buffer. A biotin-labeled anti-HisTag antibody (biotin-PENTA-His, Qiagen Cat. No. 34440) was immobilized to saturation on a Biacore SA chip (Cat. No. BR-1000-32) surface by injection at 500 nM in HBS-EP buffer. […] Subsequent to IGF-1R injections, flow rates were increased to 20 μL/min. A second, 130 μL injection of anti-IGF-1R antibody or Fab was performed to investigate interactions with the receptor. Each antibody and Fab was serially diluted from 64 nM to 0.5 nM to obtain concentration dependent kinetic binding curves. Each injection series was regenerated using 3×10 μL injections of 10 mM Acetate, pH 4.0, at 20 μL/min. Each curve was double referenced using (1) data obtained from a streptavidin surface devoid of IGF-1R and (2) data from a primary injection of IGF-1R followed by a secondary injection of HBS-EP buffer. The concentration series for each antibody and Fab was fit to the 1:1 binding model provided within the BiaEvaluation software of the manufacturer.
To obtain discrete affinities, Fab fragments of each antibody were generated using papain digestion as described above.

human INSR(28-956)-His10 = target: T2, human INSR(28-956)-His10 (human, UniProt P06213 28-956); assay: ELISA on coated rh-INSR
T2 construct: range 28-956; Bought (R&D Systems 1544-IR); also called rh-INSR; soluble insulin receptor
Protocol: ELISA assays were performed to determine specific binding of the Fab fragment antibodies to soluble IGF-1R over the insulin receptor. […] Color development was stopped by addition of 4NH₂SO₄ and optical density is measured at 450 nm using a Molecular Devices plate reader and binding curves are generated.

B1: M13-C06 Fab (Fab, V domains shown)
VH: EVQLLESGGGLVQPGGSLRLSCAASGFTFSIYRMQWVRQAPGKGLEWVSGISPSGGTTWYADSVKGRFTISRDNSKNTLYLQMNSLRAEDTAVYYCARWSGGSGYAFDIWGQGTMVTVSS
VL: DIQMTQSPLSLSASVGDRVTITCQASRDIRNYLNWYQQKPGKAPKLLIYDASSLQTGVPSRFGGSGSGTDFSFTIGSLQPEDIATYYCQQFDSLPHTFGQGTKLEIK
notes: Human Fab from a phage library, kappa light chain
B1 was tested, and the Kd [1] was 1.3 nM and the binding result (human INSR(28-956)-His10) was “no binding (tested: 2 µM-0.2 nM)”.
